Blank lines part the entries; values can stand above or below the sequence they belong to.
How the values were obtained:
HLA-C*03:03 = test: IEDB peptide-MHC binding, purified MHC/direct/fluorescence; filed as Kd, often an IC50 or EC50 that approximates it; ≥ and ≤ were set here for values at or beyond the usual limits of such assays; settings: source organism: Escherichia coli str. K-12 substr. MG1655
HLA-C*05:01 = test: as above
HLA-C*14:02 = test: as above
HLA-B*39:01 = test: IEDB peptide-MHC binding, purified MHC/competitive/fluorescence; filed as Kd, often an IC50 or EC50 that approximates it; ≥ and ≤ were set here for values at or beyond the usual limits of such assays; settings: source organism: Escherichia coli str. K-12 substr. MG1655
HLA-B*58:01 = test: as above; settings: source organism: Escherichia coli str. K-12 substr. MG1655
HLA-A*02:01 [1] = test: as above; settings: source organism: Shigella flexneri 5 str. 8401
HLA-A*24:02 [2] = test: as above; settings: source organism: Shigella flexneri 5 str. 8401
HLA-A*31:01 [3] = test: as above; settings: source organism: Shigella flexneri 5 str. 8401
HLA-A*32:15 = test: as above
HLA-B*08:01 = test: as above; settings: source organism: Shigella flexneri 5 str. 8401
HLA-B*15:42 = test: as above
HLA-B*45:06 = test: as above
HLA-B*83:01 = test: as above
HLA-A*29:02 = test: as above; settings: source organism: Mycosarcoma maydis
HLA-A*32:07 = test: as above
HLA-C*04:01 = test: as above
HLA-A*01:01 = test: IEDB peptide-MHC binding, purified MHC/competitive/fluorescence; ≥ and ≤ were set here for values at or beyond the usual limits of such assays
HLA-A*02:01 [4] = test: as above; settings: source organism: Zaire ebolavirus
HLA-A*11:01 = test: as above
HLA-A*24:02 [5] = test: as above; settings: source organism: Zaire ebolavirus
HLA-A*03:01 = test: as above; settings: source organism: Vaccinia virus Copenhagen
HLA-B*15:01 = test: as above; settings: source organism: Vaccinia virus Copenhagen
HLA-A*31:01 [6] = test: IEDB peptide-MHC binding, purified MHC/competitive/radioactivity; filed as Kd, often an IC50 or EC50 that approximates it; ≥ and ≤ were set here for values at or beyond the usual limits of such assays; settings: source organism: Vaccinia virus WR
HLA-A*33:01 = test: as above; settings: source organism: Vaccinia virus WR
HLA-A*68:01 = test: as above; settings: source organism: Vaccinia virus WR
HLA-A*02:03 = test: IEDB peptide-MHC binding, purified MHC/direct/fluorescence; filed as Kd, often an IC50 or EC50 that approximates it; ≥ and ≤ were set here for values at or beyond the usual limits of such assays; settings: source organism: Mycobacterium tuberculosis str. Haarlem
HLA-A*02:11 = test: as above; settings: source organism: Mycobacterium tuberculosis str. Haarlem
HLA-A*69:01 = test: as above; settings: source organism: Mycobacterium tuberculosis
HLA-C*06:02 = test: as above; settings: source organism: Mycobacterium tuberculosis variant bovis BCG str. Pasteur 1173P2
HLA-C*07:02 = test: as above; settings: source organism: Mycobacterium tuberculosis variant bovis BCG str. Pasteur 1173P2
HLA-C*15:02 = test: as above
HLA-A*26:01 = test: as above; settings: source organism: Mycobacterium tuberculosis
HLA-C*08:02 = test: as above; settings: source organism: Mycobacterium tuberculosis str. Haarlem
[7] = source organism: Escherichia coli str. K-12 substr. MG1655
[8] = source organism: Shigella flexneri 5 str. 8401
[9] = source organism: Mycosarcoma maydis
[10] = source organism: Zaire ebolavirus
[11] = source organism: Vaccinia virus Copenhagen
[12] = source organism: Mycobacterium tuberculosis variant bovis BCG str. Pasteur 1173P2
[13] = source organism: Mycobacterium tuberculosis str. Haarlem

Kd (HLA-C*03:03): 2 nM | Kd (HLA-C*05:01; [7]): ≥ 20000 nM | Kd (HLA-C*14:02; [7]): 2990 nM | Kd (HLA-B*39:01): ≥ 20000 nM | Kd (HLA-B*58:01): ≥ 20000 nM
Sequence: AAAVAYPEL

Sequence: IIMRRFFYF
Kd (HLA-A*02:01 [1]): 32.9 nM | Kd (HLA-A*24:02 [2]): ≤ 0.1 nM | Kd (HLA-A*31:01 [3]): 1.2 nM | Kd (HLA-A*32:15; [8]): 67.7 nM | Kd (HLA-B*08:01): 22.2 nM | Kd (HLA-B*15:42; [8]): ≥ 5000 nM | Kd (HLA-B*45:06; [8]): ≥ 5000 nM | Kd (HLA-B*83:01; [8]): ≥ 5000 nM

Sequence: IPVHPRHPY
Kd (HLA-A*29:02): 938 nM | Kd (HLA-A*32:07; [9]): 392 nM | Kd (HLA-A*32:15; [9]): 1430 nM | Kd (HLA-B*15:42; [9]): ≥ 5000 nM | Kd (HLA-B*45:06; [9]): ≥ 5000 nM | Kd (HLA-B*83:01; [9]): 222 nM | Kd (HLA-C*04:01; [9]): ≥ 5000 nM

Sequence: ITDKIDQII
IC50 (HLA-A*01:01; [10]): 5950 nM | IC50 (HLA-A*02:01 [4]): 5020 nM | IC50 (HLA-A*11:01; [10]): 39200 nM | IC50 (HLA-A*24:02 [5]): 8700 nM

Sequence: KSNAKCIEY
IC50 (HLA-A*01:01; [11]): 41800 nM | IC50 (HLA-A*03:01): 16500 nM | IC50 (HLA-A*11:01; [11]): 21700 nM | IC50 (HLA-B*15:01): 18200 nM | Kd (HLA-A*31:01 [6]): 347 nM | Kd (HLA-A*33:01): ≥ 25800 nM | Kd (HLA-A*68:01): ≥ 24700 nM

Sequence: YMLDMTFPV
Kd (HLA-A*02:03): ≤ 1 nM | Kd (HLA-A*02:11): ≤ 1 nM | Kd (HLA-A*69:01): ≤ 1 nM | Kd (HLA-C*05:01; [12]): 3430 nM | Kd (HLA-C*06:02): ≥ 20000 nM | Kd (HLA-C*07:02): 651 nM | Kd (HLA-C*14:02; [12]): 76 nM | Kd (HLA-C*15:02; [12]): 407 nM

Sequence: YTPEQWWPF
Kd (HLA-A*26:01): 11.4 nM | Kd (HLA-C*08:02): ≥ 20000 nM | Kd (HLA-C*14:02; [13]): 969 nM | Kd (HLA-C*15:02; [13]): ≥ 20000 nM | Kd (HLA-A*32:07; [13]): 22.9 nM | Kd (HLA-A*32:15; [13]): 38.2 nM | Kd (HLA-B*15:42; [13]): ≥ 5000 nM | Kd (HLA-B*45:06; [13]): ≥ 5000 nM | Kd (HLA-B*83:01; [13]): ≥ 5000 nM | Kd (HLA-C*04:01; [13]): ≥ 5000 nM

Source: the Immune Epitope Database (IEDB)
